The target of one assay is CD70-APC (UniProt P32970). Description: FACS binding. On the technique in general: A flow cytometer gives signals particle by particle.
Assay [1] addresses CD70 on CD70+ skrc-59 ccRCC cells (UniProt P32970). Nature of the assay: FACS binding. The note with it: Fc fusion.

EC50 data for two substances are collected here from patent US12577311.

Sequence of CD70-APC (P32970 39-193): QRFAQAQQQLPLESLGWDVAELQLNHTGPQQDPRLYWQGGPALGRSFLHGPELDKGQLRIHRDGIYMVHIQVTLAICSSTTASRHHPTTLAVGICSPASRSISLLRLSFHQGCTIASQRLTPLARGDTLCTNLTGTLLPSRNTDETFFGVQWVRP
Sequence of CD70 on CD70+ skrc-59 ccRCC cells (P32970 whole entry, the tested form may be a part): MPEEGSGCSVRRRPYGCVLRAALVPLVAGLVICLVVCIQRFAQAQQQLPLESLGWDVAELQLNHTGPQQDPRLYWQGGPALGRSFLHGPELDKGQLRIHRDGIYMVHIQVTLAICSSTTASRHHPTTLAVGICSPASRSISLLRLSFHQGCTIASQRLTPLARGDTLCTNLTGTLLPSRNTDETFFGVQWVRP

Consider CD27, for which the EC50 in the assay with CD70-APC came to 0.917 µg/mL.
Consider “anti-CD70 minibody #7 (from UniProt P01721 20-117)”, for which the EC50 in assay [1] was 0.114 µg/mL.

The term EC50 denotes the concentration needed to bring the measured effect to its halfway point. Low values mean greater potency, high ones weaker potency.
